Experimental data taken from patent US5792457A, “Antibody recognizing endothelial cell ligand for leukocyte CR3” (priority 1995, dated 1998).

Test: Overlay on thin-layer chromatography plates containing glycolipids
Format: binding
From the text: 2) The DNA sequence from nucleotide position 3674 to 4088 (bounded by XhoI sites) which corresponds to the CRD was amplified by the polymerase chain reaction and ligated into one of the pET expression vectors (Rosenberg et al. (1987), Gene 56, 125-135). Expression of the polypeptide in E. coli utilized the T7 RNA polymerase promoter system (Tabor, S. & Richardson, C.C. (1985), Proc. Natl. Acad. Sci. U.S.A. 82). [^35 S] […] Cell lysates containing the expressed protein were overlaid on thin-layer chromatography plates containing glycolipid standards and the binding pattern was compared to that of FHA.

B1: CRD protein: expressed polypeptide of FHA carbohydrate recognition domain, residues 1141-1279, 18kD (protein, UniProt P12255 1141-1279, looked up, fragment)
chain: LEHSTIESKISQSVLAAKGDKGKPAVSVKVAKKLFLNGTLRAVNDNNETMSGRQIDVVDGRPQITDAVTGEARKDESVVSDAALVADGGPIVVEAGELVSHAGGIGNGRNKENGASVTVRTTGNLVNKGYISAGKQGVL
- binding to lactosylceramides (in words): bound to these carbohydrates in a pattern similar to FHA, especially in the ability to bind to lactosylceramides
